We go through 14 molecules from patent US20230235072A1 (DENALI THERAPEUTICS, published 2023).

The target in assay [1] is T1, human transferrin receptor (TfR) ectodomain (ECD) (human, UniProt P02786 121-760, biotinylated where captured on streptavidin).
T1 construct: also called human TfR; huTfR
In words: ELISA, Fc-Fab fusion titrated on plate-coated human TfR; OD650. The text has this: (§1) The CH2C variants were expressed as Fc fusions to Fab fragments by cloning into an expression vector containing an anti-BACE1 benchmark variable region sequence.

In assay [2] the target is T2, cynomolgus transferrin receptor (TfR) ectodomain (ECD) (cynomolgus, UniProt Q5RDH6 121-760 (Pongo abelii entry), biotinylated where captured on streptavidin).
T2 construct: also called cyno TfR; cynoTfR
T2 chain: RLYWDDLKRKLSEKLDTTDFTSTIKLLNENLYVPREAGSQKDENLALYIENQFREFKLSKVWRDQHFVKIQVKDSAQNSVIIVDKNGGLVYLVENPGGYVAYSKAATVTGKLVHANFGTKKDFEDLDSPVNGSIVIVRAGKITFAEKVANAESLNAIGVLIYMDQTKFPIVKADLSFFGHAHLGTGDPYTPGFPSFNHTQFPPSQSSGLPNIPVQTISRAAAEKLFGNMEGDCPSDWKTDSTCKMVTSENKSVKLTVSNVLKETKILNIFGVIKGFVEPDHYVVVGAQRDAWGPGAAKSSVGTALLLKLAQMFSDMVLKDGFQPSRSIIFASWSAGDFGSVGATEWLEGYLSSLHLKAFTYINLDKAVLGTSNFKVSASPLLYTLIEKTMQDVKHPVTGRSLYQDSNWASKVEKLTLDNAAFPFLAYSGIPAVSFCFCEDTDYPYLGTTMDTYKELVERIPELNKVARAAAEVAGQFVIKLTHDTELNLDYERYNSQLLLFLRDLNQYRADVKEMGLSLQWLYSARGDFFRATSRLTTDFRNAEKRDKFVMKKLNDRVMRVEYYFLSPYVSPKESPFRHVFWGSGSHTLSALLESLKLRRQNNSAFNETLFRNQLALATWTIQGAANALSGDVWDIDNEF
Kind of assay: ELISA, Fc-Fab fusion titrated on plate-coated cyno TfR; OD650.
Description: as §1

In assay [3] the target is T2, cynomolgus transferrin receptor (TfR) …. In words: ELISA, Fc-Fab fusion (dimer format) titrated on plate-coated cyno TfR; OD650.
In assay [4] the target is T1, human transferrin receptor (TfR) …. In words: ELISA, Fc-Fab fusion (dimer format) titrated on plate-coated human TfR; OD650. The protocol:
Fc regions comprising the CH3B clone sequences were fused to Fab fragments and were assayed in a dimer format.

Changes are numbered by the printed parent chain.

B1: Clone CH2C.3 (designed binder)
chain: PCPAPELLGGPSVFLFPPKPKDTLMISRTPEVTCVVVDPQTPPWEVKFNWYVDGVEVHNAKTKPREEEYYSNYRVVSVLTVLHQDWLNGKEYKCKVSNKALPAPIEKTISKAKGQPREPQVYTLPPSRDELTKNQVSLTCLVKGFYPSDIAVEWESNGQPENNYKTTPPVLDSDGSFFLYSKLTVDKSRWQQGNVFSCSVMHEALHNHYTQKSLSLSPGK
Consider B1, for which the binding result in assay [1] and in assay [2] was “binds” each time.

B2: Clone CH2C.5 (designed binder)
chain: B1 chain with P42V
As to B2, the binding result in assay [1] and in assay [2] was “binds” each time.

B3: Clone CH2C.4 (designed binder)
chain: B1 chain with P39F, Q40R, T41G, S71H, N72D
Regarding B3, the concentration giving a half-maximal response (EC50 (read off the curve)) in assay [2] is approximately 8 nM.

B4: Clone CH2C.2 (designed binder)
chain: B1 chain with Q40P, T41S
Regarding B4, the binding result in assay [1] and in assay [2] was “binds” each time.

B5: Clone CH2C.6 (designed binder)
chain: B1 chain with Q40K, T41M, S71T, N72Y
As to B5, the binding result in assay [1] and in assay [2] was “binds” each time.

B6: Clone CH2C.1 (designed binder)
chain: B1 chain with S71T, N72Y
As for B6, in assay [1], the binding result was “binds”. The concentration for a half-maximal effect (EC50 (read off the curve)) in assay [2] is approximately 8 nM.

B7: Clone CH3B.1 (designed binder)
chain: PCPAPELLGGPSVFLFPPKPKDTLMISRTPEVTCVVVDVSHEDPEVKFNWYVDGVEVHNAKTKPREEQYNSTYRVVSVLTVLHQDWLNGKEYKCKVSNKALPAPIEKTISKAKGQPRFDYVTTLPPSRDELTKNQVSLTCLVKGFYPSDIAVEWESNGQPENNYKTTPPVLDSDGSFFLYSKLTVDKSRWQQGNVFSCSVMHEALHNHYGFHDLSLSPGK
As for B7, the “EC50 (read off the curve)” value was approximately 3 nM in assay [3] and approximately 4 nM in assay [4].

B8: Clone CH3B.5 (designed binder)
chain: B7 chain with D119E, Y120L
Consider B8, for which the binding result in assay [3] and in assay [4] was “binds” throughout.

B9: Clone CH3B.2 (designed binder)
chain: B7 chain with Y120M
For B9, the entries for the concentration for a half-maximal effect (EC50 (read off the curve)) in assay [3] and in assay [4] were approximately 2 nM and approximately 4 nM, respectively.

B10: Clone CH3B.9 (designed binder)
chain: B7 chain with D119G, Y120M
Take B10: the binding result in assay [3] and in assay [4] was “binds” throughout.

B11: Clone CH3B.6 (designed binder)
chain: B7 chain with D119E, Y120I
With B11, the binding result in assay [3] and in assay [4] was “binds” each time.

B12: Clone CH3B.7 (designed binder)
chain: B7 chain with Y120I
Take B12: the binding result in assay [3] and in assay [4] was “binds” in each case.

B13: Clone CH3B.3 (designed binder)
chain: B7 chain with D119E
On to B13, for which the binding result in assay [3] and in assay [4] was “binds” in each case.

B14: Clone CH3B.4 (designed binder)
chain: B7 chain with D119E, Y120M
On to B14, for which the binding result in assay [3] and in assay [4] was “binds” in each case.
